T1: Cynomolgus VE-PTP (Cyno PTP-β) containing first eight FN3 repeats with C-terminal His10 tag (Cyno Beta ½ … (cynomolgus, UniProt P23467 25-817 (human entry)))
T1 construct: Produced in HEK293 cells; it was not cut off; also called Cyno VE-PTP
T1 chain: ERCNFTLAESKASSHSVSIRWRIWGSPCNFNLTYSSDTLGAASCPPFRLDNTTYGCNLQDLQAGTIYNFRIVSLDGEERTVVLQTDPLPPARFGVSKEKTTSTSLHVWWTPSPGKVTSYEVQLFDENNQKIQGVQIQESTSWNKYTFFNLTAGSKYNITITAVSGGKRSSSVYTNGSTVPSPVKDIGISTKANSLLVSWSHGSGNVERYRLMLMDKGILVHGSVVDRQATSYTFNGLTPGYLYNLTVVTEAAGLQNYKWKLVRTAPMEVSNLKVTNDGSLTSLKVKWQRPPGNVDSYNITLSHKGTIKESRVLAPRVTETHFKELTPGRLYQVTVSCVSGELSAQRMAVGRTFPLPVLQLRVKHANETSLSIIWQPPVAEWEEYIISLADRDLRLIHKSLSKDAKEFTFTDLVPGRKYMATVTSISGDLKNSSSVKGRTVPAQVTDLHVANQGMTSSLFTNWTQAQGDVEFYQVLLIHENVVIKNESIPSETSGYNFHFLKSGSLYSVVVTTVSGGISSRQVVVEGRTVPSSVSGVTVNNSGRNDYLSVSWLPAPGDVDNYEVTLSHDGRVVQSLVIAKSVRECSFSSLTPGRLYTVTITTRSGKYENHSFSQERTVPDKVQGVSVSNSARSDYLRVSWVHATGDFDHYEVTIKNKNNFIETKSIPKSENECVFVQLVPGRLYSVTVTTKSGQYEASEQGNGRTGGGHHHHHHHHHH

T2: Human VE-PTP (HPTP-β) containing first eight FN3 repeats with C-terminal His6 tag (Human ½ VE-PTP ECD) (human, UniProt P23467 23-820)
T2 construct: Produced in HEK293 cells and purified by the His tag; it was not cut off; also called Human Beta ½ ECD
T2 sequence: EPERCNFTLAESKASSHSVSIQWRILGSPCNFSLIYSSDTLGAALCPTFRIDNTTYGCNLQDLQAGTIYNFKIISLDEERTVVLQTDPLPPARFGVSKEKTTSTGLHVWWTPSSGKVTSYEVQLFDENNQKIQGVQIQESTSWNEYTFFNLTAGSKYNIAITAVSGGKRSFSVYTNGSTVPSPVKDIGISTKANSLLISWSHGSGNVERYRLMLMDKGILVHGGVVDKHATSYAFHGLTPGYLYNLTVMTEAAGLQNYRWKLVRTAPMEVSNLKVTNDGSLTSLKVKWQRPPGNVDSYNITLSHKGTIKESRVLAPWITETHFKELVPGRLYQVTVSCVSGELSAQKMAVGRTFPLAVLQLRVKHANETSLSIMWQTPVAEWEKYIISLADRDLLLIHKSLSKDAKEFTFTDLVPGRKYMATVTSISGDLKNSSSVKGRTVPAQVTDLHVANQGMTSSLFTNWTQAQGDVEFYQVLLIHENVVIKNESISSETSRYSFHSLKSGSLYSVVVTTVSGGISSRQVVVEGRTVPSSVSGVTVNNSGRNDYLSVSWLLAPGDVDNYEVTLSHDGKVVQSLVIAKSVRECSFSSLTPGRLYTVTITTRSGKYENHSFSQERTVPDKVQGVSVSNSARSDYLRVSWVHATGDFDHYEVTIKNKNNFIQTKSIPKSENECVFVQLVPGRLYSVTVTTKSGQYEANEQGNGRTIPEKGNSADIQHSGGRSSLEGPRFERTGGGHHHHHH

B1: mouse/human chimeric antibody HC0LC0 (antibody, human IgG4 S228P, kappa, V domains shown)
VH: EVQLVETGGGLVQPKGSMKLSCAASGFTFNANAMNWIRQAPGKGLEWVARIRTKSNNYATYYAGSVKDRFTISRDDAQNMLYLQMNDLKTEDTAMYYCVRDYYGSSAWITYWGQGTLVTVSA
VL: DIVMTQSHKFMSTSVGDRVSITCKASQHVGTAVAWYQQKPDQSPKQLIYWASTRHTGVPDRFTGSGSGTDFTLTISNVQSEDLADYFCQQYSSYPFTFGSGTKLEIKR
notes: Murine variable domains of R15E6 on human IgG4 (S228P) and kappa constant domains, expressed in CHO cells; also called VH0-VL0
B2: humanized R15E6 variant HC2LC1 (antibody, human IgG4 S228P, kappa, V domains shown)
VH: EVQLVESGGGLVQPGGSLRLSCAASGFTFNANAMNWVRQAPGKGLEWVGRIRTKSNNYATYYAGSVKDRFTISRDDSKNSLYLQMNSLKTEDTAVYYCVRDYYGSSAWITYWGQGTLVTVSS
VL: DVVMTQSPSFLSASVGDRVTITCKASQHVGTAVAWYQQRPGKAPKLLIYWASTRHTGVPSRFSGSGSGTEFTLTISSLQPEDFATYFCQQYSSYPFTFGGGTKLEIKR
notes: Human IgG4 (S228P) / kappa, expressed in CHO cells; Signal peptides left out by range; also called VH2-VL1
B3: humanized R15E6 variant HC2LC2 (antibody, human IgG4 S228P, kappa, V domains shown)
VH: EVQLVESGGGLVQPGGSLRLSCAASGFTFNANAMNWVRQAPGKGLEWVGRIRTKSNNYATYYAGSVKDRFTISRDDSKNSLYLQMNSLKTEDTAVYYCVRDYYGSSAWITYWGQGTLVTVSS
VL: DIVMTQSPDSLAVSLGERATINCKASQHVGTAVAWYQQKPGQPPKLLIYWASTRHTGVPDRFSGSGSGTDFTLTISSLQAEDVAVYYCQQYSSYPFTFGQGTKLEIKR
notes: Human IgG4 (S228P) / kappa, expressed in CHO cells; Signal peptides left out by range; also called VH2-VL2
B4: humanized R15E6 variant HC1LC2 (antibody, human IgG4 S228P, kappa, V domains shown)
VH: EVQLVESGGGLVQPGGSLKLSCAASGFTFNANAMNWVRQASGKGLEWVGRIRTKSNNYATYYAGSVKDRFTISRDDSKNTAYLQMNSLKTEDTAAYYCVRDYYGSSAWITYWGQGTLVTVSS
VL: DIVMTQSPDSLAVSLGERATINCKASQHVGTAVAWYQQKPGQPPKLLIYWASTRHTGVPDRFSGSGSGTDFTLTISSLQAEDVAVYYCQQYSSYPFTFGQGTKLEIKR
notes: Human IgG4 (S228P) / kappa, expressed in CHO cells; Signal peptides left out by range; also called VH1-VL2
B5: humanized R15E6 variant HC2LC3 (antibody, human IgG4 S228P, kappa, V domains shown)
VH: EVQLVESGGGLVQPGGSLRLSCAASGFTFNANAMNWVRQAPGKGLEWVGRIRTKSNNYATYYAGSVKDRFTISRDDSKNSLYLQMNSLKTEDTAVYYCVRDYYGSSAWITYWGQGTLVTVSS
VL: DIQMTQSPFSLSASVGDRVTITCKASQHVGTAVAWYQQKPGKAPKLLIYWASTRHTGVPSRFSGSGSGTDFTLTISSLQPEDFATYFCQQYSSYPFTFGGGTKLEIKR
notes: Human IgG4 (S228P) / kappa, expressed in CHO cells; Signal peptides left out by range; also called VH2-VL3
B6: humanized R15E6 variant HC3LC4 (antibody, human IgG4 S228P, kappa, V domains shown)
VH: EVQLVESGGGLVQPGRSLRLSCTASGFTFNANAMNWVRQAPGKGLEWVGRIRTKSNNYATYYAGSVKDRFTISRDDSKNIAYLQMNSLKTEDTAVYYCVRDYYGSSAWITYWGQGTLVTVSS
VL: DIVMTQSPDSLAVSLGERATINCKASQHVGTAVAWYQQKPEQPPKLLIYWASTRHTGVPDRFSGSGSGTDFTLTISSLQAEDVAVYYCQQYSSYPFTFGGGTKVEIKR
notes: Human IgG4 (S228P) / kappa, expressed in CHO cells; Signal peptides left out by range; also called VH3-VL4
B7: humanized R15E6 variant HC1LC4 (antibody, human IgG4 S228P, kappa, V domains shown)
VH: EVQLVESGGGLVQPGGSLKLSCAASGFTFNANAMNWVRQASGKGLEWVGRIRTKSNNYATYYAGSVKDRFTISRDDSKNTAYLQMNSLKTEDTAAYYCVRDYYGSSAWITYWGQGTLVTVSS
VL: DIVMTQSPDSLAVSLGERATINCKASQHVGTAVAWYQQKPEQPPKLLIYWASTRHTGVPDRFSGSGSGTDFTLTISSLQAEDVAVYYCQQYSSYPFTFGGGTKVEIKR
notes: Human IgG4 (S228P) / kappa, expressed in CHO cells; Signal peptides left out by range; also called VH1-VL4
B8: humanized R15E6 variant HC2LC4 (antibody, human IgG4 S228P, kappa, V domains shown)
VH: EVQLVESGGGLVQPGGSLRLSCAASGFTFNANAMNWVRQAPGKGLEWVGRIRTKSNNYATYYAGSVKDRFTISRDDSKNSLYLQMNSLKTEDTAVYYCVRDYYGSSAWITYWGQGTLVTVSS
VL: DIVMTQSPDSLAVSLGERATINCKASQHVGTAVAWYQQKPEQPPKLLIYWASTRHTGVPDRFSGSGSGTDFTLTISSLQAEDVAVYYCQQYSSYPFTFGGGTKVEIKR
notes: Human IgG4 (S228P) / kappa, expressed in CHO cells; Signal peptides left out by range; also called VH2-VL4

How the values were obtained:
[1] = target: T1, Cynomolgus VE-PTP (Cyno PTP-β) …; assay: ELISA, coated antigen
Method: (§1) HPTP-β, cyno PTP-β, and HPTP-η proteins were coated onto ELISA plates in coating buffer (pH 9.4). Each protein was prepared as a 1 μg/mL protein stock in 50 mM carbonate-bicarbonate. The coated proteins were aliquoted at a volume of 100 μL/well into sterile, clear, polystyrene, flat bottom 96-well plates. The plates were incubated overnight at 4° C. After overnight incubation, the plates were washed 3× with 200 μL/well of 1×PBS-T (PBS with 0.05% Tween 20). The immunizing protein was human VE-PTP (HPTP-β). The plates were then blocked with 200 μL/well of 5% blotting grade blocker non-fat dry milk in PBS-T and incubated for 1 hr at room temperature.
(§2) Primary antibody samples were prepared for the humanized variants and the negative control, anti-hCD20-hIgG4S228P, using 1 μg/well in 5% blotting grade blocker non-fat dry milk in PBS. Samples were tested in triplicates. The Fab antibody fragments were treated as the IgG antibodies. The plates were then washed 3× with PBS-T and 100 μL of primary antibody preparation was added in each well. The plates were then incubated for 1 hr at room temperature.
(§3) Then, […] Ultra TMB-ELISA was added in each well, and the plate was allowed to develop for 5 min at room temperature. After 5 min, 50 μL of 2 M sulfuric acid was added to each well to stop the reaction. The plates were then analyzed on a plate reader at an absorbance wavelength of 450 nm.

[2] = target: T2, Human VE-PTP (HPTP-β) containing first …; assay: ELISA, antigen coated at 1 µg/mL, antibody 1 µg/well
Method: as §1, §2, §3

[3] = target: T2, Human VE-PTP (HPTP-β) containing first …; assay: SPR (Biacore 3000), antibody captured on anti-human IgG, antigen as analyte 50-0 nM
Method: (§4) Samples of each variant were further assessed by Biacore analysis to determine the binding affinity. Antibody binding experiments were performed on Biacore 3000™ at 25° C. Assay buffer: 10 mM HEPES buffer (pH 7.4), 150 mM NaCl, 3 mM EDTA, 0.05% P20 (polyoxyethylenesorbitan). […] Conjugation buffer: 10 mM sodium acetate buffer (pH 5). The flow rate used for capturing the ligand was 5 μL/min. The flow rate for the kinetic analysis was 50 μL/min. Flow cell 1 and […] of the CM5 chip were coated with maximum amounts of goat anti-human IgG. Approximately 150 RU of the test antibody was captured on flow cell 2, 3, and 4 as indicated. The antigen was flowed over the chip. Binding of the antigen to the antibodies was monitored in real time. The KD was determined from the observed kₒₙ and koff values.

[4] = target: T2, Human VE-PTP (HPTP-β) containing first …; assay: SPR (Biacore 3000), antibody captured on anti-human IgG, antigen as analyte 25-0 nM
Method: as §4

| Binder | binding result [1] | ELISA value (absorbance at 450 nm) [2] | Ka [3] [M⁻¹] | Kd [3] [nM] | koff [3] [s⁻¹] | kon [3] [M⁻¹ s⁻¹] | Ka [4] [M⁻¹] | Kd [4] [nM] | koff [4] [s⁻¹] | kon [4] [M⁻¹ s⁻¹] |
| --- | --- | --- | --- | --- | --- | --- | --- | --- | --- | --- |
| B1 | no binding (tested: <=0.2; 1 µg/well) | 1.8 | 3.18e+08 | 3.14 | 0.000656 | 209000 | – | – | – | – |
| B2 | no binding (tested: <=0.2; 1 µg/well) | 1.81 | 1.5e+10 | 0.0668 | 7.23e-05 | 1.08e+06 | – | – | – | – |
| B3 | no binding (tested: <=0.2; 1 µg/well) | 1.92 | – | – | – | – | 1.98e+07 | 50.6 | 0.00215 | 42500 |
| B4 | no binding (tested: <=0.2; 1 µg/well) | 1.75 | 4.33e+08 | 2.31 | 0.000947 | 410000 | – | – | – | – |
| B5 | no binding (tested: <=0.2; 1 µg/well) | 1.55 | – | – | – | – | 6.75e+08 | 1.48 | 0.00123 | 890000 |
| B6 | no binding (tested: <=0.2; 1 µg/well) | 2 | – | – | – | – | 1.23e+08 | 8.14 | 0.00109 | 134000 |
| B7 | no binding (tested: <=0.2; 1 µg/well) | 1.74 | 4.44e+08 | 2.25 | 0.00134 | 596000 | – | – | – | – |
| B8 | no binding (tested: <=0.2; 1 µg/well) | 1.65 | 2.3e+09 | 0.436 | 0.000429 | 986000 | – | – | – | – |
